From PMC3197142, “Direct Identification of Insulator Components by Insertional Chromatin Immunoprecipitation” (PLoS ONE, 2011)

T1: GST-Matrin-3 (human, UniProt P43243-1 1-847)
T1 construct: human Matrin-3, cDNA GenBank NM_199189, inserted downstream of the GST gene in pGEX-6P-1; also called GST-fused Matrin-3; pGEX-Matrin-3; source: E. coli BL21-CodonPlus(DE3)-RIPL, purified (Glutathione Sepharose 4B); not shown: GST, N-terminal, kept
T1 sequence (looked up): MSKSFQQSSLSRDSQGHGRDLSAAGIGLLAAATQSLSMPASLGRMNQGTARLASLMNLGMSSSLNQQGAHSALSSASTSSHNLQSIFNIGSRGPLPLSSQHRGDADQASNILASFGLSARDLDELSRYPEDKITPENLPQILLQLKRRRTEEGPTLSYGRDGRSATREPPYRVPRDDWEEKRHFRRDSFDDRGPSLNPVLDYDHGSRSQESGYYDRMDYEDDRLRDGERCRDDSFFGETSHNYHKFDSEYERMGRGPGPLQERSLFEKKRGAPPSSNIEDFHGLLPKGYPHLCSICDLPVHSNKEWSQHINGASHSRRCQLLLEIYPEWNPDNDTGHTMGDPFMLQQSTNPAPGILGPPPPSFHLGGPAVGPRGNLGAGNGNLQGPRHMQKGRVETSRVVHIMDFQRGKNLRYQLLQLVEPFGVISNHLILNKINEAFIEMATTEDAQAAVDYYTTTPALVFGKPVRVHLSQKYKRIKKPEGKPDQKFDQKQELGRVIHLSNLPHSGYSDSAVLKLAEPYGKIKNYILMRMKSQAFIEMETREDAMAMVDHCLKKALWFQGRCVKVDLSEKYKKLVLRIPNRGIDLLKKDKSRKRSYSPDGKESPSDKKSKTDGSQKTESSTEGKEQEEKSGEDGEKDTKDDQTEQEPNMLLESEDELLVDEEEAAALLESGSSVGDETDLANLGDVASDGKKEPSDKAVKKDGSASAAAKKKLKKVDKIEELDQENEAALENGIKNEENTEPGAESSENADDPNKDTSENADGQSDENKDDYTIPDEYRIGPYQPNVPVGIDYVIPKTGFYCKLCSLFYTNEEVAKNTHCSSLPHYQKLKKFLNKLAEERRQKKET


Target: T1, GST-Matrin-3
Assay: pull-down; purified GST-Matrin-3 (50 ng) incubated with purified MBP-fused proteins (50 ng) in Interaction Buffer (20 mM Tris pH 8.0, 137 mM NaCl, 1.5 mM MgCl2, 1 mM EGTA, 0.1% Triton X-100, 10% glycerol), 1.5 h at 4°C; captured on Glutathione Sepharose 4B; immunoblot with anti-MBP Ab
Settings: both partners purified

binding result	Binder
binds	MBP-p68 (natural protein, human, UniProt P17844-1 1-614, looked up, human p68 (DDX5), cDNA GenBank NM_004396, inserted downstream of the MBP gene in pMAL-x5c; also called p68/DDX5; source: E. coli BL21-CodonPlus(DE3)-RIPL, purified (Amylose resin); not shown: MBP, N-terminal, kept) MSGYSSDRDRGRDRGFGAPRFGGSRAGPLSGKKFGNPGEKLVKKKWNLDELPKFEKNFYQEHPDLARRTAQEVETYRRSKEITVRGHNCPKPVLNFYEANFPANVMDVIARQNFTEPTAIQAQGWPVALSGLDMVGVAQTGSGKTLSYLLPAIVHINHQPFLERGDGPICLVLAPTRELAQQVQQVAAEYCRACRLKSTCIYGGAPKGPQIRDLERGVEICIATPGRLIDFLECGKTNLRRTTYLVLDEADRMLDMGFEPQIRKIVDQIRPDRQTLMWSATWPKEVRQLAEDFLKDYIHINIGALELSANHNILQIVDVCHDVEKDEKLIRLMEEIMSEKENKTIVFVETKRRCDELTRKMRRDGWPAMGIHGDKSQQERDWVLNEFKHGKAPILIATDVASRGLDVEDVKFVINYDYPNSSEDYIHRIGRTARSTKTGTAYTFFTPNNIKQVSDLISVLREANQAINPKLLQLVEDRGSGRSRGRGGMKDDRRDRYSAGKRGGFNTFRDRENYDRGYSSLLKRDFGAKTQNGVYSAANYTNGSFGSNFVSAGIQTSFRTGNPTGTYQNGYDSTQQYGSNVPNMHNGMNQQAYAYPATAAAPMIGYPMPTGYSQ
binds	MBP-CTCF (natural protein, human, UniProt P49711-1 1-727, looked up, source: E. coli BL21-CodonPlus(DE3)-RIPL, purified (Amylose resin); not shown: MBP, N-terminal, kept) MEGDAVEAIVEESETFIKGKERKTYQRRREGGQEEDACHLPQNQTDGGEVVQDVNSSVQMVMMEQLDPTLLQMKTEVMEGTVAPEAEAAVDDTQIITLQVVNMEEQPINIGELQLVQVPVPVTVPVATTSVEELQGAYENEVSKEGLAESEPMICHTLPLPEGFQVVKVGANGEVETLEQGELPPQEDPSWQKDPDYQPPAKKTKKTKKSKLRYTEEGKDVDVSVYDFEEEQQEGLLSEVNAEKVVGNMKPPKPTKIKKKGVKKTFQCELCSYTCPRRSNLDRHMKSHTDERPHKCHLCGRAFRTVTLLRNHLNTHTGTRPHKCPDCDMAFVTSGELVRHRRYKHTHEKPFKCSMCDYASVEVSKLKRHIRSHTGERPFQCSLCSYASRDTYKLKRHMRTHSGEKPYECYICHARFTQSGTMKMHILQKHTENVAKFHCPHCDTVIARKSDLGVHLRKQHSYIEQGKKCRYCDAVFHERYALIQHQKSHKNEKRFKCDQCDYACRQERHMIMHKRTHTGEKPYACSHCDKTFRQKQLLDMHFKRYHDPNFVPAAFVCSKCGKTFTRRNTMARHADNCAGPDGVEGENGGETKKSKRGRKRKMRSKKEDSSDSENAEPDLDDNEDEEEPAVEIEPEPEPQPVTPAPPPAKKRRGRPPGRTNQPKQNQPTAIIQVEDQNTGAIENIIVEVKKEPDAEPAEGEEEEAQPAATDAPNGDLTPEMILSMMDR
